The DeepSol protein solubility set

Test: soluble on expression in E. coli; label from the status in PepcDB or PDB records

| Sequence | soluble on expression in E. coli |
| --- | --- |
| MGEKEKEFAVIGLGRFGGSICRELAQLGMEVMAIDSDEDKINEFANIASHAVIADSTDEMVLKSLGIRNFDHVVVAIGDNLNSSILTTLILKELGVKNITVKAQNDYHEKVLSKIGADHIVHPERDMGKRIANNIASSNVLDYLELSDEHSIVEIIANKKIDGHSLIELDIRAKFGLNIVAIKRGKEVIVSPRATENIQAGDILIVIGHDDEVDRFKHFLR | not soluble |
| MGSDKIHHHHHHMSNCFNPANILLPKDGIDMEKWSVIACDQYTSQADYWKTVEEFVGDAPSTLNVVFPEIYLGNKKNDKNCACENGSCADDHTTMYASMSDSERIACINSTMEKYLSDGIIQQVVTDGYVLVERTTESGVRLGIVGLVDLDDYDFDPKNPTLIRATEGTVISRIPPRVKIREHAAIELPHVMLLVDDPVDKADDASDEGKLTDIYNIGNIEHGIIEYVYSLKDSFRKLYDTDLMQGGGHIRGYAIEGEAAKQVTAAFAKKQEQSGGFLFAVGDGNHSLATAKTCWENIRKSQKFTDEQLKTHPARYALVEICNLHSKALEFKPIHRLLTKVNVEDMLAFFNEQLKEQGLECAEGNEIIFEYVESSDSIDENASGYEARVCTYAINIINRGDRLPVEILQGILDKYIKSHEDTEIDYIHGDDALHRLVKETNGCGIFLQSIDKSTLFPAINAGGVLPRKTFSIGEANEKRYYMECHNIQVK | not soluble |
| MSNLNNLTSKILNDAEEKKKYILADAEAQKDKIISKKTNRAEADKEEIITKANIEAEVKKARIISNAKLSVRNDMLRAKQDVISKVFNEAIEKLQNLSNGDYKYYVISTLDSLELEGTEVIIINEKDKDIFSNEFLEALNKELESKGKKGSITLNMEGKFNGGFILDRNGIQINNTFEALINSLRGELEFEVNKVLFDLEHHHHHH | soluble |
| MGSDKIHHHHHHVCSELAKDVPTNMSIKMPSLTPSSLSSLIPSSVPSEVQNVQGKDCMKEAIGADKIARQFSQAAKHYQEHDKVQRLSAQRLRTKMTPIGRLLDIGCGPGTDFSAAPGLNEVLGLDIAPGMLSQMLESFPSYKALCGDAQALPLSDASIDTLYSNLALQWCSDIKTAIGELARVLKPGSQCHLAIVVDGSLSELDALGLRVNAFEQAQTLLDGFSDSHWQIEHHSVEPLRVHFDDLKTLLYSIKGVGASAAMGSDVSQGSDVTQDSDASHGPDDTQGSVSKPPPRLRGRQDWLALCERAEKMRQPEGLPLTYQILFIHASRRG | not soluble |
| MYEGESVVQLAKRMIEHLLKWGVTDAFTDKQIYTILEKAESTLKPLPAMLQVEHPITIVGDIHGQLDALIRYFDAVGYPPKVQFLFLGDYVDRGAKSFEVSLLLFCYKIRYPHLNVFNELPLCARVGQRILCMHGGISQNCNSWESFKALKKPNTPLTCDEGLQVDLMWADPTQDKCNTFAMNKQRAISVVFGQKGLDDFLKKLGLSLIVRAHEVSQEGFNFLFNKKCVTVFSAPYYCGNDTNCGAIMHVSDSYELSFTVLRPRMIATPENFEIVKLMENNYKGLMVASPDPNRGRHLQSADVPQPTPPSVQLVPPVTKPVEIKKQ | not soluble |
| MDLEAPPTLLQLAAQCTVRKEVLTISVLQNLPMKLFPPLFKEADILRKAKMIKLLVEYWPYPSLLVGLLIDKTNLETFQAILEGVGTWLKRKYRPRMGKLQVVDLRNGHHDFWDMLAGREGGDQLVETMPEKQEVEGHSRRQRLRVFSDLSFKSSRHEDKQQTHLLQWAKDREGFLHLCCEKLEIGALGVSKVKKVLKLLQPEFIKELELNTVGNLSKLTKLVPCISKMRNLQKLMLVRIFGRHTYTPLEERNVTKILSLFPKLSYLQHLTIDDVYFLRDHMNELFRYLEAPLLSLTITLCQISQSDLESFSQHWNYGQLKHLCLKGVSLSTLNVTPLKFFLESVADTLQTLELEDCRMKDSHLRILLPALTKCTRLTSINFYDNNISRDVLQDLLHRTANMSQLTMELYPAPVEVYNEWSYVQVERFSQLCAELMNTLITVRRPKSVCFGTYSCYDCDTHCIYGNQTTFCECLE | not soluble |
| MGSDKIHHHHHHMTSRSPFESFVWQSEIFNCQSNDIDAFYAQLAEEVNRLGLKKNTLGSVDSFAINLYQSASQRSDLPSLLISSGFHGEEAAGPWGMLHFLRGLQPALFERVNLSLLPLVNPTGFKAGHRFNRFGENPNRGFTLENGKPTPNEHTSLEGKLLLEHAQLLCAASRDGILTCHEDVLMNETYVYSFEPTQTPGRFSLGLRDALGQYFKLAKDGFIDECPVTDGVIFNHFDTSFEAFLVRSGAKLAACSETPGQEDFDRRVQANSAAMGQFIAHCAPIL | not soluble |
| MSSKSTKRAKIEDPKDNVFMVEKVLDKRTGKAGRDEFLIQWQGFPESDSSWEPRENLQCVEMLDEFEREFSKREKPIRKRHSQKPEPSEDQADPEEDKDEKKETNQNDKFSLEGKQLKCIVGLTKGPGELHFLCKFSDDTARLLPAKEVNSRYRPFVDAYGEFLKKKMERRHKRISEGKKKRSIEEDDADDEWPEMPPGHRILTTEEHELQRRKESKISQDVEMTEAFQQTAADMLNDMHMAANGDLLSSFPQDFLEDSGDGEVHEAAILSVFDDNSNSPPPCPIVVDTVPDDDDSLLFPRNS | soluble |
| MLLSNEEFLKKLTDLLQTHQSKGTGSVYLSQKCNPVDEGEGSSASVLIRAKSGAAEKISTVVELDYFTDFFQSYAEVCKGQIVGLKKRDRK | soluble |
| GAMAPATVNVEVLQDKLDHPWALAFLPDNHGMLITLRGGELRHWQAGKGLSAPLSGVPDVWAHGQGGLLDVVLAPDFAQSRRIWLSYSEVGDDGKAGTAVGYGRLSDDLSKVTDFRTVFRQMPKLSTGNHFGGRLVFDGKGYLFIALGENNQRPTAQDLDKLQGKLVRLTDQGEIPDDNPFIKESGVRAEIWSYGIRNPQGMAMNPWSNALWLNEHGPRGGDEINIPQKGKNYGWPLATWGINYSGFKIPEAKGEIVAGTEQPVFYWKDSPAVSGMAFYNSDKFPQWQQKLFIGALKDKDVIVMSVNGDKVTEDGRILTDRGQRIRDVRTGPDGYLYVLTDESSGELLKVSPR | soluble |
| NTRGMALFADGGLIATKPYSASGSYINKMSDYCASCAYQVKLKSGEKACPLNSLYWRFMLKHRDRLANNPRIGMLYKTWDKMTSDSQQAILSTADAYLSQIESL | not soluble |
| PREIVDFHAKLINDTPLSTYVGFLDDLQEHDEIDNARALSGIPGVVIVGEQDAVTPQSQSERIVSLWSDAGLQIAPNAGHMIILEQPAIVNKAIDQMVQQAAQNVQKDDA | not soluble |
| MSLKAIAVDMDGTFLDSKKTYDKPRFEAIFTELRNRDITFIAASGNQYAKLKSIFGDRDMYFISENGAVIYKGNELYNYKSFNRQVFQQVVDYLNMNQSIDQLVICGLKSAYILKHTSEAFKEDTRFYYHQLKEIDSLQQLPEDDYVKIAFNINRETHPNVDEEVATQFSNDIKLVSSGHDSIDIIMPNMTKGQALKRLLDKWEMSPSELMAFGDANNDKDMLAFAKHSYVMENSHDEELFNIASAVAPSNDKQGVLTIIEQEVLNKEGHHHHHH | soluble |
| MRVFYDKDCDLSIIQGKKVAIIGYGSQGHAHACNLKDSGVDVTVGLRSGSATVAKAEAHGLKVADVKTAVAAADVVMILTPDEFQGRLYKEEIEPNLKKGATLAFAHGFSIHYNQVVPRADLDVIMIAPKAPGHTVRSEFVKGGGIPDLIAIYQDASGNAKNVALSYACGVGGGRTGIIETTFKDETETDLFGEQAVLCGGCVELVKAGFETLVEAGYAPEMAYFECLHELKLIVDLMYEGGIANMNYSISNNAEYGEYVTGPEVINAESRAAMRNALKRIQDGEYAKMFITEGAANYPSMTAYRRNNAAHPIEQIGEKLRAMMPWIAANKIVDKSKN | soluble |
| MKIYIQPLSVNSHTVEVLANSLPKIFNAEVFVLPASDVSLKCYNASRRQYNSTCILRMLPPIKVTLGVTGKDIYAKGMNFVFGEAELGGARAVLSVFRLTTADSELYRERVVKEAVHEIGHVLGLKHCSNNCVMRFSNSVQDVDRKPVSFCRECASKIRYLEHHHHHH | soluble |
| MGSDKIHHHHHHMVVLAPHIEWLMETVHIISGLNDGGAEAVLYRLCSSDKAAEHYVISLMDEGKYGALLREAGVQVSCLSMPRGRVTLGGLWRLWRLLRQIRPQAVQTWMYHADLVGGLIARLAGVKQVFWGIHHTTLHAGQSRRSTIWVARLCARISSCLPSAIICCAQKALEAHRELGYAAEKLRVIPNGYDLVRFRVDEDARVRLRTEWNTGSRWLIGMVGRFDPLKDHKNLLDALAIVKYRGVDFCCVLAGRGLDQNNAQLMAWLTELDLAGEVKLLGQRMDIPDVMNALDVHVLSSSSEAFPNVVAEAMACGTSVVTTNVGDAALIVGETGWVVPARNPGMLADALLQAYVAMHDEAAWQVRCTAVRQRVEDHFSLERMVENYHLVWQNKL | not soluble |
| VEAHPSLTLFSQLRIEHEDMAIAEDDWAWLRHKGHLRLGAALDETSPFNVRLDDENYEGITADVATLVGQLLGMRIKVVSFDTHADAVAALAAGKIDLLGSHYSSAGDSSLVLSQPYARDRLAVFKRMGEKRNSPEDLAGLSVAVAREHVGELRQRFPRARFVVFGSHDEAVAAVAFGHTDLYLDDVLSAYHRINRSYYGYVRFERFADARLEGGYGFLLRRGDTNLLRVVNSAIGAINQDRLESIARRWVGSGSLPTGQRIALTPQESRWIARHPVVRLVINDDLAPLAFFNSDETFSGIASDLLDMISRRTGLHFQVTPRSGGFPEQIGVLARKEADLAIMSRSSKREEMLRFTRSFLSTSYVLVTRADDKGRAEIPGSLDGKRIAIPAGHVGMQQVRERYPQASMVEVGVALDAMNLVYEGRADAAVVPLVTARYYIVRLFRERLAIADLVPIGAATAHFAVRRGDAELQSILDKALLSISPDDLSDIVNRW | not soluble |
| MADGVLAVSQEGFNTLQSYNVGEKYTADLWIQQGGLKSTASVVSFSVDKALLDSMNIADGTSYELLPADCYQLTKSSVDIPANERLLKGELTYDPAKIQELSGYDHLKYVLPLRATSSGMPFVSGRSVLLLGFKVSEPIVTIMNAGVEEINLAEVKELPVQIGVPFTNKWEISCRLESRQSVIDAYNTAHGTYFSMLPSDAYVTPETPILHSGVNQVTATYKLKDDILPGNYMLPVQIAEVTSDATIRADKDVYAAYSIIKEGDKLSKTDWKIVSFTTEEASGEGSNNGHAKHLIDGNIETFWHSRWQGGSDPLPYEIIIDMNHRVKIAQIELLPRGRGSNNPIKVVRFEASEDGTNWESIGQFGFTNQDAALKYYVKSSTARYIKLVIPDGVGNGTVAAIRELDVRGTVVNLEHHHHHH | soluble |
| AFYNITLRTNDGEKKIECNEDEYILDASERQNVELPYSCRGGSCSTCAAKLVEGEVDNDDQSYLDEEQIKKKYILLCTCYPKSDCVIETHKEDELHDM | soluble |
| MRISSLLFLTFLAGIVQAQDFLAMFKPFLGGGGGGGNPFANPQAIGGLFQQFAGGNGGGFGQLLAGAMAPKPAPAAAGPRSAPAPTNEDYNTDIDVPAPKAKARAAPTPRRAQGDDDDNIDMSLTRLG | not soluble |
| MDGAATKFFRPWESHGSYHHSLPSISPPDSPASTSASSSSSSIGANELTTKRRKCERCTCPNCKAIKHGDRGSQHTHLCSVPGCGKTYKKTSHLRAHLRKHTGDRPFVCDWFDCGKRFDRSDQLIRHKRTHTKEYRFACKFCIRQFSRSDHLQQHLTSVHNIVVVD | not soluble |
| GMNVDFINPFLDSLLNVLKTMANMELKPGKPNLKKDNLAKGDVSGLIGMVGPQTKGSLSITFEETLILEIMNKMLGEKPESIDEEVTDLVGELTNMVTGGAKNLLSDKGYEFDMATPIVVSGKNHTIAHKSDGQKIIMPFSSIYGTAYIEICFEG | soluble |
